*1 amine or outer side, *2 acyl side, *3 side chain or, on linkers, in order; H or OH if unused. Bridges are numbered along the chain shown (N, C = ends). Where no end group is shown, it is not given here. [ ]: non-standard residue; d: D form. TATA = O=C(CC[*:1])N1CN(C(=O)CC[*:2])CN(C(=O)CC[*:3])C1; Trp(1-Me) = Cn1cc(C[C@H](N)C(=O)O)c2ccccc21; Arg(Me2a) = CN(C)C(=N)NCCC[C@H](N)C(=O)O; Lys(Me3) = C[N+](C)(C)CCCC[C@H](N)C(=O)O; Phe(4-F) = N[C@@H](Cc1ccc(F)cc1)C(=O)O; 1Nal = N[C@@H](Cc1cccc2ccccc12)C(=O)O; Ala(cPent) = N[C@@H](CC1CCCC1)C(=O)O; Ala(cPr) = N[C@@H](CC1CC1)C(=O)O; tBuAla = CC(C)(C)C[C@H](N)C(=O)O; NMeA = CN[C@@H](C)C(=O)O A value given as a limit tells only on which side of the number the result lay.

Results on 39 molecules are retold here after patent US20220363718A1 (Bicycle, published 2022).

One experiment has as its target T1, Biotinylated human TSLP (human, biotinylated).
T1 construct: also called hTSLP; thymic stromal lymphopoietin
Nature of the experiment: SPR, biotinylated hTSLP on streptavidin chip. (In general: Surface plasmon resonance follows binding to a sensor surface in real time, without labels.)

Experiment [1] has as its target TSLP (as used in the human PBMC assay) (UniProt Q969D9 29-159). Nature of the experiment: cell-based or functional assay.

T1 sequence (chain, as listed by the source limits assumed): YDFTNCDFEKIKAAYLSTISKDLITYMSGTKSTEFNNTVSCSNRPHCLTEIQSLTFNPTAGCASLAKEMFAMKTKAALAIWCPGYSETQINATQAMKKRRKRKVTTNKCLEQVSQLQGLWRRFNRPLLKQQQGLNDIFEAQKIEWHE

B1: Example 61 (peptide)
peptide: SDEQRTCQWLEDCWRGFCA
modifications: linker 7-13-18 via TATA
B1 showed a Kd in the experiment with Biotinylated human TSLP of 0.062 µM.

B2: Example 21 (peptide)
peptide: CQXLEDCXRGXC
modifications: not fully specified; N-term acetyl; CQ[5FTrp]LEDC[5FTrp]RG[4-FPhe]C as printed; 3 Cys on TATA
Regarding B2, in the experiment with Biotinylated human TSLP, the Kd amounted to 0.0092 µM.

B3: Example 81 (peptide)
peptide: Ac-CQWLEDCW[Lys(Me3)]GFC
modifications: linker 1-7-12 via TATA; not fully specified (C-terminus)
On to B3, for which binding in the experiment with Biotinylated human TSLP was characterised by a dissociation constant (Kd) of 0.1 µM.

B4: Example 80 (peptide)
peptide: Ac-CQW[Ala(cPr)]EDCWRGFC
modifications: linker 1-7-12 via TATA; not fully specified (C-terminus); printed as CQW[CproA]EDCWRGFC
B4 returned a Kd with Biotinylated human TSLP of 0.1 µM.

B5: Example 44 (peptide)
peptide: Ac-CQW[tBuAla]EDCWRGFC
modifications: linker 1-7-12 via TATA; not fully specified (C-terminus); printed as Ac-CQW[tBuA]EDCWRGFC
For B5, the “CCL17 % Inhibition @ 10 µM, 666 pM TSLP” value in experiment [1] came to 52%.

B6: Example 41 (peptide)
peptide: CQWLEDCWRGXC
modifications: not fully specified; N-term acetyl; CQWLEDCWRG[3-F,4-ClPhe]C as printed; 3 Cys on TATA
On to B6, for which, in the experiment with Biotinylated human TSLP, the Kd came out at 0.024 µM.

B7: Example 199 (peptide)
peptide: ACDWHWEYDCWLSCA
modifications: linker 2-10-14 via TATA
As for B7, binding with Biotinylated human TSLP was characterised by a dissociation constant (Kd) of 0.081 µM.

B8: Example 27 (peptide)
peptide: CQXLEDCWRGXC
modifications: not fully specified; N-term acetyl; CQ[Nal1]LEDCWRG[4-FPhe]C as printed; 3 Cys on TATA
B8: the Kd in the experiment with Biotinylated human TSLP came to 0.012 µM.

B9: Example 53 (peptide)
peptide: Ac-ACQWLEDCWRGFCPLD
modifications: linker 2-8-13 via TATA; not fully specified (C-terminus)
In the experiment with Biotinylated human TSLP, B9 returned a Kd of 0.043 µM.

B10: Example 37 (peptide)
peptide: CQWLEDCWRGXC
modifications: not fully specified; N-term acetyl; CQWLEDCWRG[3,4,5triFPhe]C as printed; 3 Cys on TATA
B10: binding in the experiment with Biotinylated human TSLP was put at a Kd of 0.019 µM.

B11: Example 77 (peptide)
peptide: CQWLEDCWRGXC
modifications: N-term acetyl; CQWLEDCWRG[4-CF3Phe]C as printed; 3 Cys on TATA
As for B11, in the experiment with Biotinylated human TSLP, binding was characterised by a dissociation constant (Kd) of 0.093 µM.

B12: Example 54 (peptide)
peptide: Ac-CQWLEDCWRGFCAPDERD
modifications: linker 1-7-12 via TATA
B12 returned a Kd with Biotinylated human TSLP of 0.046 µM.

B13: Example 65 (peptide)
peptide: Ac-CQW[Ala(cPent)]EDCWRGFC
modifications: linker 1-7-12 via TATA
For B13, the Kd with Biotinylated human TSLP is 0.07 µM.

B14: Example 4 (peptide)
peptide: CQWXEDCWRGXC
modifications: not fully specified; Ac-CQW[tBuA]EDCWRG[4-FPhe]C; 3 Cys cyclised with TATA
For B14, the “CCL17 % Inhibition @ 10 µM, 50 pM TSLP” value in experiment [1] is 47%.

B15: Example 8 (peptide)
peptide: CQWLEDCWRGXC
modifications: not fully specified; Ac-CQWLEDCWRG[4F3ClPhe]C; 3 Cys cyclised with TATA
In the case of B15, in experiment [1], the “CCL17 % Inhibition @ 10 µM, 50 pM TSLP” value was 71%.

B16: Example 27 (peptide)
peptide: CQXLEDCWRGXC
modifications: not fully specified; Ac-CQ[Nal1]LEDCWRG[4-FPhe]C; 3 Cys cyclised with TATA
In the case of B16, the “CCL17 % Inhibition @ 10 µM, 666 pM TSLP” value in experiment [1] turned out to be 33%.

B17: Example 25 (peptide)
peptide: Ac-C[NMeA][1Nal][tBuAla]QDC[Trp(1-Me)][Arg(Me2a)]G[Phe(4-F)]C
modifications: linker 1-7-12 via TATA; not fully specified (C-terminus)
With B17, the “CCL17 % Inhibition @ 10 µM, 50 pM TSLP” value in experiment [1] came to 71%.

B18: Example 18 (peptide)
peptide: Ac-C[NMeA][Trp(1-Me)][tBuAla]QDC[Trp(1-Me)][Arg(Me2a)]G[Phe(4-F)]C
modifications: linker 1-7-12 via TATA
With B18, the “CCL17 % Inhibition @ 10 µM, 50 pM TSLP” value in experiment [1] is 89%.

B19: Example 22 (peptide)
peptide: CQWLEDCWRGXC
modifications: not fully specified; N-term acetyl; CQWLEDCWRG[3,4diFPhe]C as printed; 3 Cys on TATA
The molecule B19 had a Kd with Biotinylated human TSLP of 0.0097 µM.

B20: Example 60 (peptide)
peptide: CQWLEDCXRGXC
modifications: N-term acetyl; CQWLEDC[4-ClNal]RG[4-FPhe]C as printed; 3 Cys on TATA
In the experiment with Biotinylated human TSLP, B20 returned a Kd of 0.062 µM.

B21: Example 22 (peptide)
peptide: CQWLEDCWRGXC
modifications: not fully specified; Ac-CQWLEDCWRG[3,4diFPhe]C; 3 Cys cyclised with TATA
In the case of B21, the “CCL17 % Inhibition @ 10 µM, 50 pM TSLP” value in experiment [1] was 41%.

B22: Example 17 (peptide)
peptide: CQWLEDCWRGXC
modifications: not fully specified; Ac-CQWLEDCWRG[4-FPhe]C; 3 Cys cyclised with TATA
As to B22, the “CCL17 % Inhibition @ 10 µM, 50 pM TSLP” value in experiment [1] turned out to be 1%.

B23: Example 38 (peptide)
peptide: CQXLEDCWXGXC
modifications: not fully specified; N-term acetyl; CQ[Nal1]LEDCW[ADMA]G[4-FPhe]C as printed; 3 Cys on TATA
The molecule B23 returned a Kd with Biotinylated human TSLP of 0.02 µM.

B24: Example 62 (peptide)
peptide: CAXLEDCWXGXC
modifications: N-term acetyl; CA[Nal1]LEDCW[Harg]G[4-FPhe]C as printed; 3 Cys on TATA
Molecule B24 registered a Kd in the experiment with Biotinylated human TSLP of 0.063 µM.

B25: Example 55 (peptide)
peptide: ACQWLEDCWRGFCDDAHAP
modifications: linker 2-8-13 via TATA
B25 registered a Kd with Biotinylated human TSLP of 0.047 µM.

B26: Example 26 (peptide)
peptide: CQWLEDCWRGXC
modifications: not fully specified; N-term acetyl; CQWLEDCWRG[4-BrPhe]C as printed; 3 Cys on TATA
Take B26: in the experiment with Biotinylated human TSLP, binding was characterised by a dissociation constant (Kd) of 0.011 µM.

B27: Example 74 (peptide)
peptide: CQWLEDCWRGXC
modifications: not fully specified; N-term acetyl; CQWLEDCWRG[3-MePhe]C as printed; 3 Cys on TATA
B27 showed a Kd with Biotinylated human TSLP of 0.091 µM.

B28: Example 71 (peptide)
peptide: ETNNLECQWLEDCWRGFCA
modifications: linker 7-13-18 via TATA
Consider B28, for which, in the experiment with Biotinylated human TSLP, binding was put at a Kd of 0.082 µM.

B29: Example 29 (peptide)
peptide: Ac-C[NMeA][1Nal][tBuAla]QDC[Trp(1-Me)][Arg(Me2a)]G[Phe(4-F)]C[dA]
modifications: linker 1-7-12 via TATA; not fully specified (C-terminus)
On to B29, for which, in experiment [1], the “CCL17 % Inhibition @ 10 µM, 50 pM TSLP” value amounted to 61% and the “CCL17 % Inhibition @ 10 µM, 400 pM TSLP” value stood at 62%.

B30: Example 76 (peptide)
peptide: ACTWLDDCWRGFCA
modifications: linker 2-8-13 via TATA
As for B30, the Kd in the experiment with Biotinylated human TSLP is 0.093 µM.

B31: Example 75 (peptide)
peptide: ACHWLEDCWRGFCHLE
modifications: linker 2-8-13 via TATA; not fully specified (C-terminus)
For the molecule B31, binding with Biotinylated human TSLP was characterised by a dissociation constant (Kd) of 0.092 µM.

B32: Example 63 (peptide)
peptide: ACTWLEDCWRGFCADS
modifications: linker 2-8-13 via TATA
In the case of B32, the equilibrium dissociation constant (Kd) in the experiment with Biotinylated human TSLP is 0.065 µM.

B33: Example 42 (peptide)
peptide: ACQWLEDCWRGFCADGDML
modifications: linker 2-8-13 via TATA
For the molecule B33, in experiment [1], the “CCL17 % Inhibition @ 10 µM, 50 pM TSLP” value was under 20% and the “CCL17 % Inhibition @ 10 µM, 666 pM TSLP” value turned out to be 47%.

B34: Example 32 (peptide)
peptide: CQWLEDCWRGXC
modifications: not fully specified; Ac-CQWLEDCWRG[3-ClPhe]C; 3 Cys cyclised with TATA
For B34, the “CCL17 % Inhibition @ 10 µM, 666 pM TSLP” value in experiment [1] came out at 14%.

B35: Example 20 (peptide)
peptide: CQWLQDCWXGXC
modifications: N-term acetyl; CQWLQDCW[ADMA]G[4-FPhe]C as printed; 3 Cys on TATA
On to B35, for which, in the experiment with Biotinylated human TSLP, the Kd amounted to 0.0086 µM.

B36: Example 28 (peptide)
peptide: CWWLQDCWXGXC
modifications: not fully specified; N-term acetyl; CWWLQDCW[ADMA]G[4-FPhe]C as printed; 3 Cys on TATA
B36 displayed a Kd with Biotinylated human TSLP of 0.012 µM.

B37: Example 70 (peptide)
peptide: CQWLEDCWXGXC
modifications: N-term acetyl; CQWLEDCW[4-PipA]G[4-FPhe]C as printed; 3 Cys on TATA
Take B37: in the experiment with Biotinylated human TSLP, the equilibrium dissociation constant (Kd) turned out to be 0.08 µM.

B38: Example 200 (peptide)
peptide: DHDCTWNWEYDCWLDCA
modifications: linker 4-12-16 via TATA
Consider B38, for which the Kd in the experiment with Biotinylated human TSLP stood at 0.068 µM.

B39: Example 73 (peptide)
peptide: SPPCVWLDDCWRGFCA
modifications: linker 4-10-15 via TATA
With B39, binding with Biotinylated human TSLP was characterised by a dissociation constant (Kd) of 0.085 µM.

Broadly, the Kd is the equilibrium constant for the complex coming apart. A high value points to weaker binding.
